Measurements reported in patent US9803013B2, “Biological materials and uses thereof” (BioInvent International AB, priority 2005, dated 2017).
Read-outs that look alike come from different tables or passages of the source.

What was measured:
RPMI-8226 myeloma cells = experiment: Advanced disseminated MM model, i.v. grafted RPMI-8226 in SCID mice; assay type: in vivo, mouse; settings: 2 mg/kg from five days after i.v. grafting; compared to bortezomib, lenalidomide, melphalan or dexamethasone
Source text: To assess the therapeutic potential of BI-505 for treatment of MM, the anti-myeloma effects of BI-505 were compared to current gold-standard treatment in disseminated experimental models of MM sharing characteristics with human disease. These models resemble the manifestation and progression of human MM disease in many respects, including tumor dissemination and establishment in bone marrow, and the appearance of osteolytic bone-lesions and hypercalcemia (Mitsiades et al., 2003; Yaccoby et al., 1998). Firstly, the anti-myeloma activity of BI-505 was compared with currently used treatments in an advanced disseminated MM model comprising RPMI-8226 myeloma cells. In this model, therapeutic treatment with 2 mg/kg BI-505 was started five days after intravenous grafting of MM cells to allow for homing and establishment of MM cells in bone marrow.
All studies were conducted in accordance with guidelines of the Lund University Hospital, Sweden or University of Utah, Salt Lake City, USA following approval from the local ethical committee for animal care and use. […] The role of macrophages and NK cells for BI-505 in vivo antitumor activity was assessed using anti-asialo antibody treatment, clodronate liposome treatment or NK-cell deficient mice. […]

human target tumor cells = experiment: ADCC with human effector NK cells; assay type: cell-based
Protocol: NK cells were isolated from purified PBMCs using positive or negative NK cell-isolation kits (Miltenyi Biotec). Target cells were harvested and incubated in medium with or without the respective antibodies (2 μg/mL) for 60 min on ice before. NK cells were washed, diluted in ADCC medium and dispensed together with the respective antibody-coated target cells at varying effector/target cell ratios. All experiments were performed in triplicate. After incubation, TO-PRO-3 dye and counting beads (Invitrogen) were added and cells were analyzed for membrane permeabilization using flow cytometry.
Buffy coats from human donors (ordered through Blodcentralen, Lund) were used to isolate peripheral blood mononuclear cells (PBMCs), and subsequently natural killer (NK) cells. Briefly, peripheral blood components were separated using Ficoll-Paque PLUS (Amersham Biosciences, Sweden) in Leucosep tubes (Greiner Bio-One). […] The purity of the obtained NK cell fractions was >75% as determined by flow cytometry after staining with α-CD56 antibodies (BD Biosciences). […] After incubation, TO-PRO-3 dye and counting beads (Invitrogen) were added and cells were analyzed for membrane permeabilization using flow cytometry.

MDA MB 435 = experiment: IgG binding to tumour cell line, flow cytometry MFI; design: species or system human; settings: MDA MB 435, Melanoma
Source text: (§1) The antigen distribution of human antibody targeted antigens, mainly for B11, on different carcinoma cell lines was investigated. Cells (MCF-7 and MDA MB 435S breast carcinoma, JAR and JEG-3 chorio-carcinoma, A549 lung carcinoma, TCC-SUP urinary bladder carcinoma, MDA MB 435 melanoma, HPAC, PANC-1 and BxPC-3 pancreatic carcinoma, PC-3 and DU145 prostate carcinoma, LS174 T, CaCo2, and Lovo colorectal carcinoma, and THP-1 monocytic leukaemia cells), were washed in PBS, and resuspended at 4×10^6 cells/ml in Complete Medium (200,000 cells/50 […] sample). […] Cells were incubated with either of the antibodies for 1 hour on ice, washed by resuspension in PBS/BSA 0.5%, centrifuged at 1200 rpm for 5 min, and complete aspiration of the supernatants was undertaken. Cells were incubated with PE-conjugated Goat F(ab′)2 anti-Human IgG (Caltag Laboratories, Cat no: H10104), diluted 1/50 in PBS/BSA 0.5%, for 30 min, on ice. Following resuspension of in 300 μl PBS/BSA 0.5%, cells were analysed for IgG binding using a FACScan instrument.

[1] = mouse
Protocol: Blood samples collected from the vena cava were centrifuged at 2500 g for 15 min to obtain serum and the samples were stored at −20° C.
Sera were prepared from blood samples collected from the vena saphena from 3 animals in each group at different time-points during the course of in vivo experimentation. Briefly, ELISA plates were coated over night with human ICAM-1 protein. The following day, plates were incubated with the serum samples. Biotinylated goat-anti-BI-505 was used for detection of BI-505 in the serum samples. Sera were analysed by ELISA to determine BI-505 trough levels. Trough BI-505 serum concentrations were then plotted as a function of dose and were fitted using five parameter log-log curve and XLfit software (IDBS, Guildford, United Kingdom).

[2] = tested on: THP-1 monocytic leukaemia cells; experiment: IgG binding to tumour cell line, flow cytometry; design: species or system human
Source text: FIG. 6—Binding of B1, B11, C11 IgG, to tumour cell lines of different origin. The antigen distribution of antigens targeted by the B1, B11, and C11 antibodies on different carcinoma cell lines was investigated by flow-cytometry.
as §1

B1: B11: fully human IgG1 antibody specific for ICAM-1; VH and VL sequences of FIG. 10 (SEQ ID NOs. 6 and 8) (antibody, listed as Homo sapiens, V domains shown)
VH: EVQLLESGGGLVQPGGSLRLSCAASGFTFSNAWMSWVRQAPGKGLEWVAFIWYDGSNKYYADSVKGRFTISRDNSKNTLYLQMNSLRAEDTAVYYCARYSGWYFDYWGQGTLVTVSS
VL: QSVLTQPPSASGTPGQRVTISCTGSSSNIGAGYDVHWYQQLPGTAPKLLIYDNNNRPSGVPDRFSGSKSGTSASLAISGLRSEDEADYYCQSYDSSLSAWLFGGGTKLTVLG
For B1, the “survival and disease onset” value (RPMI-8226 myeloma cells) was “significantly enhanced survival and delayed disease onset”, the “ADCC” value (human target tumor cells) was “conferred cytotoxicity in an Fc-dependent manner” and the MFI (MDA MB 435) was 4000. The “In vivo serum concentrations” value ([1]; 0.02 mg/kg) was 0.06 ± 0.02 µg/mL, the “In vivo serum concentrations” value ([1]; 0.2 mg/kg) was 1.2 ± 0.4 µg/mL and the “In vivo serum concentrations” value ([1]; 2 mg/kg) was 20 ± 2.9 µg/mL. For the same molecule, the “binding / ICAM-1 expression” value [2] was “did not express ICAM-1”.
